Molecular target: GST-G1NC_(long) (GST-fused complete cytosolic domain of rat GIRK1, a.a. 1-84, 184-501) (rat) (UniProt P63251)
Test: pull-down

binding as % of wt Gβγ: 89.6%
Substance: Gβ1(I80N)γ2 (bovine Gβ1 I80N co-translated with bovine Gγ2) (from UniProt P62871 1-340; P63212 1-71) (complex)
